# Source: paper PMC10723421
# T1: CLAMP (recombinant full-length) (UniProt Q9V9N4 1-561)
# T1 sequence: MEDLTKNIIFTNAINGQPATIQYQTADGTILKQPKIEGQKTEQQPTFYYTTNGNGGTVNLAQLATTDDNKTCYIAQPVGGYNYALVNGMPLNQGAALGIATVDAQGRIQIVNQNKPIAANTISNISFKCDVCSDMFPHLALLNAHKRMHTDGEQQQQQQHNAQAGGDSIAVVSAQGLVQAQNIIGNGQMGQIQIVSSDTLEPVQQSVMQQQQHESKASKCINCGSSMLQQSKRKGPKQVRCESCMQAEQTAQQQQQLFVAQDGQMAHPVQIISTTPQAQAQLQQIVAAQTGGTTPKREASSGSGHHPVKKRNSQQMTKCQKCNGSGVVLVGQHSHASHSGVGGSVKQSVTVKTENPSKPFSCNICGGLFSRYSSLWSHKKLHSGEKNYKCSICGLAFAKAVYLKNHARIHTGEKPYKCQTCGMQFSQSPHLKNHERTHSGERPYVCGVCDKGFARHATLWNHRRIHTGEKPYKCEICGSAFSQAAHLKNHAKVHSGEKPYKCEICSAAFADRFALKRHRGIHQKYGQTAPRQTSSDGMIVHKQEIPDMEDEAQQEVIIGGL
# Target: T1, CLAMP (recombinant full-length)
# Experiment: EMSA
binder,measurement,value
"GA del H3/H4p probe, biotin (198 bp) (dsDNA) DNA 1: CACAGCACGAAAGTCACTAAAGAACTAATTTCAACGTTTCTGTGTGCCCCTATTTATAGGTAAAACGACAAAAACCCTACGAACGATATGTTCGTTCGCTTTTCGCTCGTCAAATGAAATGGCCTCTGTTTTTTCACCGTCCACGATTGCTATATAAGTAGGTAGCAAATGCTCTGATCGTTTATTGTGTTTTCAAAC DNA 2: GTTTGAAAACACAATAAACGATCAGAGCATTTGCTACCTACTTATATAGCAATCGTGGACGGTGAAAAAACAGAGGCCATTTCATTTGACGAGCGAAAAGCGAACGAACATATCGTTCGTAGGGTTTTTGTCGTTTTACCTATAAATAGGGGCACACAGAAACGTTGAAATTAGTTCTTTAGTGACTTTCGTGCTGTG",binding result,no binding
